Measured values as given in US7070776.
Values belong to the substance of their own block, whether it stands above or below them.

How the values were obtained:
B7 antigen (human) [1] = molecular target: B7 antigen (human) (UniProt P33681); assay: cell-based or functional assay
B7 antigen (human) [2] = molecular target: B7 antigen (human) (UniProt P33681); assay: direct immunofluorescence flow cytometry, 5E1 cells
B7 antigen (human) [3] = molecular target: B7 antigen (human) (UniProt P33681); assay: direct immunofluorescence flow cytometry, T51 cells
B7 antigen (human) [4] = molecular target: B7 antigen (human) (UniProt P33681); assay: direct immunofluorescence flow cytometry, Raji cells
B7 antigen (human) [5] = molecular target: B7 antigen (human) (UniProt P33681); assay: direct immunofluorescence flow cytometry, Daudi cells
B7 antigen (human) [6] = molecular target: B7 antigen (human) (UniProt P33681); assay: direct immunofluorescence flow cytometry, Jijoye cells
B7 antigen (human) [7] = molecular target: B7 antigen (human) (UniProt P33681); assay: direct immunofluorescence flow cytometry, 5E1 B-lymphoblastoid cells, no unlabeled BB-1
B7 antigen (human) [8] = molecular target: B7 antigen (human) (UniProt P33681); assay: direct immunofluorescence flow cytometry, T51 B-lymphoblastoid cells, no unlabeled BB-1
B7 antigen (human) [9] = molecular target: B7 antigen (human) (UniProt P33681); assay: direct immunofluorescence flow cytometry, Raji Burkitt's lymphoma cells, no unlabeled BB-1
B7 antigen (human) [10] = molecular target: B7 antigen (human) (UniProt P33681); assay: direct immunofluorescence flow cytometry, Daudi Burkitt's lymphoma cells, no unlabeled BB-1
B7 antigen (human) [11] = molecular target: B7 antigen (human) (UniProt P33681); assay: direct immunofluorescence flow cytometry, Jijoye Burkitt's lymphoma cells, no unlabeled BB-1
B7 antigen (human) [12] = molecular target: B7 antigen (human) (UniProt P33681); assay: direct immunofluorescence flow cytometry, 5E1 cells, after preincubation with unlabeled (cold) BB-1
B7 antigen (human) [13] = molecular target: B7 antigen (human) (UniProt P33681); assay: direct immunofluorescence flow cytometry, T51 cells, after preincubation with unlabeled (cold) BB-1
B7 antigen (human) [14] = molecular target: B7 antigen (human) (UniProt P33681); assay: direct immunofluorescence flow cytometry, Raji cells, after preincubation with unlabeled (cold) BB-1
B7 antigen (human) [15] = molecular target: B7 antigen (human) (UniProt P33681); assay: direct immunofluorescence flow cytometry, Daudi cells, after preincubation with unlabeled (cold) BB-1
B7 antigen (human) [16] = molecular target: B7 antigen (human) (UniProt P33681); assay: direct immunofluorescence flow cytometry, Jijoye cells, after preincubation with unlabeled (cold) BB-1
CD28 receptor (human) = CD28 receptor (human) (UniProt P10747); assay: cell-based or functional assay

B7 antigen (human), sequence (P33681 35-288): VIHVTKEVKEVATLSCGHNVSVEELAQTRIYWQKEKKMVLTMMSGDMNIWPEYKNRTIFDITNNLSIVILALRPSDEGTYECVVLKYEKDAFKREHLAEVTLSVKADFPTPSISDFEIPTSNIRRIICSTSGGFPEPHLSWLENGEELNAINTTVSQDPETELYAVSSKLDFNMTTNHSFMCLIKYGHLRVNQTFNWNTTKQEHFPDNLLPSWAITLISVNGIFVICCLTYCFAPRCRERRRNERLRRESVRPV

[^3H]-T incorporation of PHA blasts stimulated with B7+ CHO (40:1), BB-1 at 10 µg/ml (B7 antigen (human) [1]): 98300 cpm
blocking of adhesion of Jijoye cells to CD28+ CHO cells, 10 mM EDTA (B7 antigen (human) [1]): 60%
SPECIFIC BINDING (mean fluorescence, -cold minus +cold) (B7 antigen (human) [2]): 10.6 linear units
SPECIFIC BINDING (mean fluorescence, -cold minus +cold) (B7 antigen (human) [3]): 13.4 linear units
SPECIFIC BINDING (mean fluorescence, -cold minus +cold) (B7 antigen (human) [4]): 4.3 linear units
SPECIFIC BINDING (mean fluorescence, -cold minus +cold) (B7 antigen (human) [5]): 3.6 linear units
SPECIFIC BINDING (mean fluorescence, -cold minus +cold) (B7 antigen (human) [6]): 15 linear units
mean fluorescence (linear units), FITC-BB-1 -COLD (B7 antigen (human) [7]): 13 linear units
mean fluorescence (linear units), FITC-BB-1 -COLD (B7 antigen (human) [8]): 16.4 linear units
mean fluorescence (linear units), FITC-BB-1 -COLD (B7 antigen (human) [9]): 7.1 linear units
mean fluorescence (linear units), FITC-BB-1 -COLD (B7 antigen (human) [10]): 6.4 linear units
mean fluorescence (linear units), FITC-BB-1 -COLD (B7 antigen (human) [11]): 17.8 linear units
mean fluorescence (linear units), FITC-BB-1 +COLD (B7 antigen (human) [12]): 2.4 linear units
mean fluorescence (linear units), FITC-BB-1 +COLD (B7 antigen (human) [13]): 3 linear units
mean fluorescence (linear units), FITC-BB-1 +COLD (B7 antigen (human) [14]): 2.8 linear units
mean fluorescence (linear units), FITC-BB-1 +COLD (B7 antigen (human) [15]): 2.8 linear units
mean fluorescence (linear units), FITC-BB-1 +COLD (B7 antigen (human) [16]): 2.8 linear units
Substance: mAb BB-1 (anti-B7) (antibody)

[^3H]-T incorporation of PBL, +Anti-CD3, mAb 9.3 (immob.), Exp. 1 (CD28 receptor (human)): 137000 cpm
[^3H]-T incorporation of PBL, +Anti-CD3, mAb 9.3 (soln.), Exp. 1 (CD28 receptor (human)): 156000 cpm
[^3H]-T incorporation of PBL, +Anti-CD3, mAb 9.3 (soln.), Exp. 2 (CD28 receptor (human)): 75800 cpm
[^3H]-T incorporation of PBL, -Anti-CD3, mAb 9.3 (immob.), Exp. 1 (CD28 receptor (human)): 100 cpm
[^3H]-T incorporation of PBL, -Anti-CD3, mAb 9.3 (soln.), Exp. 1 (CD28 receptor (human)): 300 cpm
[^3H]-T incorporation of PBL, -Anti-CD3, mAb 9.3 (soln.), Exp. 2 (CD28 receptor (human)): 400 cpm
blocking of adhesion of B7 transfected COS cells to CD28+ CHO cells, EDTA omitted (CD28 receptor (human)): 40%
half-maximal inhibition of CD28-mediated adhesion (PM cells to CD28+ CHO) (CD28 receptor (human)): 10 nM
reduction of T51 cell adhesion to CD28+ CHO cells by mAb 9.3 alone (no EDTA) (CD28 receptor (human)): 62%
reduction of T51 cell adhesion to CD28+ CHO cells by mAb 9.3 plus EDTA (CD28 receptor (human)): 93%
Substance: monoclonal antibody (mAb) 9.3 (anti-CD28)

[^3H]-T incorporation of PHA blasts stimulated with B7+ CHO (40:1), 9.3 Fab at 10 µg/ml (CD28 receptor (human)): 132000 cpm
Substance: mAb 9.3 (Fab fragments)
